Measured values: PMC6035192, “Understanding the indirect DNA read-out specificity of I-CreI Meganuclease”

Tests used:
[1] = biological target: T1, I-CreI_D75N (UniProt P05725 1-163, D75N); assay: crystal structure; 2 mM Ca2+; MST at 25 C: 50 mM Tris pH 8.0 (I-CreI_3115; 2 or 10 mM CaCl2) or 50 mM Hepes pH 7.5 (I-CreI_D75N; 10 mM CaCl2), 300 mM NaCl, 0.5 mM TCEP, 0.05% Tween-20; details: protein: recombinant; chain copies: 2; blunt; self-annealed palindrome
T1 sequence: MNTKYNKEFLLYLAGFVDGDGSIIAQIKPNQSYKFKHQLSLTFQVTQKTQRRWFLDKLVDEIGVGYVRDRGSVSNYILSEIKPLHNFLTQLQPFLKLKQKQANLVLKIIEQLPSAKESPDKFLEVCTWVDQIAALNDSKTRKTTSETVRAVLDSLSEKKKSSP

[2] = biological target: T1, I-CreI_D75N; assay: crystal structure; 2 mM Mg2+; uncleaved DNA; MST at 25 C: 50 mM Tris pH 8.0 (I-CreI_3115; 2 or 10 mM CaCl2) or 50 mM Hepes pH 7.5 (I-CreI_D75N; 10 mM CaCl2), 300 mM NaCl, 0.5 mM TCEP, 0.05% Tween-20; details: protein: recombinant; chain copies: 2; blunt
[3] = biological target: T2, I-CreI_3115 chain 1;I-CreI_3115 chain 2 (;, UniProt P05725;P05725 1-163;1-163, Y33G;Q38K;Q44K;R68Y;R70S;D75N;I77Y;I132V|G19S;Y33V;Q38R;S40Q;Q44D;R68A;R70S;D75K …); assay: MST; 2 mM CaCl2; labelled DNA; MST at 25 C: 50 mM Tris pH 8.0 (I-CreI_3115; 2 or 10 mM CaCl2) or 50 mM Hepes pH 7.5 (I-CreI_D75N; 10 mM CaCl2), 300 mM NaCl, 0.5 mM TCEP, 0.05% Tween-20; details: protein: recombinant;recombinant; tags: ;; copies: 1;1; label: Cy5 on coding strand (5'); blunt
T2 sequence 1: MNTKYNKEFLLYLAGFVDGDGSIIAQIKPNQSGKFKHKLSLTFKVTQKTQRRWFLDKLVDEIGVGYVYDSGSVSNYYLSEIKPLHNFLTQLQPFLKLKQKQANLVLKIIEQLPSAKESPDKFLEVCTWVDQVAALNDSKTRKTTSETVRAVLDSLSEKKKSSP
T2 sequence 2: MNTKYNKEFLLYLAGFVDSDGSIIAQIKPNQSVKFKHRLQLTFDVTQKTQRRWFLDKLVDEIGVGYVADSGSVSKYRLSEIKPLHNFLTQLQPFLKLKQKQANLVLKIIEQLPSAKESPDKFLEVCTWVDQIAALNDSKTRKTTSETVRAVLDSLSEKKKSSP

B1: I-CreI_D75N_target (dsDNA)
DNA 1: TCAAAACGTCGTACGACGTTTTGA
DNA 2: TCAAAACGTCGTACGACGTTTTGA
Question: Does B1 bind [1]?
Answer: binds

B2: I-CreI_D75N_target-null (dsDNA)
DNA 1: TCAAAACTGCGTACGACGTTTTGA
DNA 2: TCAAAACGTCGTACGCAGTTTTGA
Question: Does B2 bind [2]?
Answer: binds

B3: I-CreI_3115_target (Cy5) (dsDNA)
DNA 1: TCAGACTTCTCCACAGGAGTCAGA
DNA 2: TCTGACTCCTGTGGAGAAGTCTGA
Question: B3 was tested. Which Kd [3] did it give?
Answer: 90 nM
